# Assay results taken from patent publication US20230078601A1 (CLEVELAND CLINIC FOUNDATION, published 2023).
# T1: AMHR2-ED 22-26 5-mer peptide (LGELL) (human)
# T1 construct: Synthesised on a cellulose membrane (SPOT peptide array); also called 22LGELL26; Residues 22-26 of AMHR2-ED and 39-43 of AMHR2
# T1 peptide: LGELL
# T2: p20-35
# T2 construct: SPOT array peptide on cellulose membrane; also called AMHR2-ED 20-35 16-mer peptide
# T2 peptide: KTLGELLDTGTELPRA
# T3: p21-36
# T3 construct: SPOT array peptide on cellulose membrane; also called AMHR2-ED 21-36 16-mer peptide
# T3 peptide: TLGELLDTGTELPRAI
# T4: p22-37
# T4 construct: SPOT array peptide on cellulose membrane; also called AMHR2-ED 22-37 16-mer peptide
# T4 peptide: LGELLDTGTELPRAIR
# T5: p20-26
# T5 construct: SPOT array peptide on cellulose membrane; residues 20-26 of AMHR2-ED; also called AMHR2-ED 20-26 7-mer peptide; KTLGELL
# T5 peptide: KTLGELL
# T6: recombinant extracellular domain of human AMHR2 (rhAMHR2-ED), C-terminal hexahistidine-tagged fusion protein (human, UniProt Q16671 18-149)
# T6 construct: also called human AMHR2-ED
# T6 sequence: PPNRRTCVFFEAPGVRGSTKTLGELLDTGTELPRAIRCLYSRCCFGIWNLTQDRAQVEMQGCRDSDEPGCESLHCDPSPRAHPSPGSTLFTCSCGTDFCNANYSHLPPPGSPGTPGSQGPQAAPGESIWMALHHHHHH
# How the values were obtained:
# [1] = biological target: T1, AMHR2-ED 22-26 5-mer peptide (LGELL); assay: SPOT peptide array, 4D12G1 at 1.0 ug/ml, chemiluminescence
# Description: (§1) The AMHR2-ED binding sequence of the 4D12G1 mAb and the critical AMHR2-ED residues for such binding were confirmed by SPOT peptide arrays. Peptides spanning the AMHR2-ED 9-40 immunoreactive region and ranging from 4-16-mers in length were synthesized >90% pure on cellulose membranes (JPT Peptide Technologies, Berlin, Germany), treated overnight with blocking buffer (Thermo Fisher), followed by treatment with the 4D12G1 mAb at 1.0 μg/ml for 3 hours at room temperature, followed by three washes with PBS containing 0.01% Tween-20 (Bio-Rad). The membranes were then treated with a 1:10,000 dilution of an HRP-conjugated rabbit anti-mouse IgG (MilliporeSigma) followed by three washes with PBS containing 0.01% Tween-20 (Bio-Rad). Bound antibody was detected using the HyGLO chemiluminescence system (Thomas Scientific).
# An overlapping series of 16-mer peptides spanning the entire 132 amino acid sequence of human AMHR2-ED (FIG. 3A) with moving single amino acid shifts were plated for direct ELISA testing using the 4D12G1 mAb as primary antibody. […] To determine amino acids recognized by the 4D12G1 mAb, an overlapping series of peptides spanning the immunoreactive sequence comprising AMHR2-ED 13-30 were synthesized with alanine substitutions at each N-terminal residue or with glycine substitutions for any native N-terminal alanine. […] Bound antibody was detected by chemiluminescence.
# p20-35 = biological target: T2, p20-35; assay: SPOT peptide array on cellulose membrane, 4D12G1 at 1.0 µg/ml, chemiluminescence
# Description: as §1
# (§2) An overlapping series of 16-mer peptides spanning the entire 132 amino acid sequence of human AMHR2-ED (FIG. 3A) with moving single amino acid shifts were plated for direct ELISA testing using the 4D12G1 mAb as primary antibody. […] To determine amino acids recognized by the 4D12G1 mAb, an overlapping series of peptides spanning the immunoreactive sequence comprising AMHR2-ED 13-30 were synthesized with alanine substitutions at each N-terminal residue or with glycine substitutions for any native N-terminal alanine. These peptides were used in competitive ELISAs to determine which residues inhibit binding of the 4D12G1 mAb with solid phase rhAMHR2-ED. […] To determine the minimal AMHR2-ED sequence involved in the binding of the 4D12G1 mAb, SPOT peptide arrays were generated spanning the immunoreactive region of AMHR2-ED. Peptides ranging from 4-16-mers in length were immobilized on cellulose membranes and treated with the 4D12G1 mAb. Bound antibody was detected by chemiluminescence.
# p21-36 = biological target: T3, p21-36; assay: as above
# Description: as §1, §2
# p22-37 = biological target: T4, p22-37; assay: as above
# Description: as §1, §2
# p20-26 = biological target: T5, p20-26; assay: as above
# Description: as §1, §2
# [2] = biological target: T6, recombinant extracellular domain of …; assay: SPR, Biacore 3000, 25 C; 4D12G1 immobilised by amine coupling, rhAMHR2-ED as analyte, Langmuir 1:1 fit
# Description: Briefly, the 4D12G1 mAb at 300 nM was diluted in sodium acetate at pH 5.0 and covalently immobilized on carboxymethylated dextran over a gold surface using an aqueous solution of N-ethyl-N′-(3-dimethylaminopropyl)carbodiimide (EDC) and N-hydroxysuccinimide (NHS; Sigma-Aldrich). The rhAMHR2-ED receptor analyte at different concentrations (10-1-103 nM) in a running buffer containing 10 mM HEPES at pH 7.4, 150 mM NaCl, 3 mM EDTA, and 0.005% P20 detergent was captured with a […] flow over the immobilized 4D12G1 ligand. Regeneration of flow cells was performed using 10 mM glycine (Sigma-Aldrich) at pH 1.7. All sensorgrams were corrected by subtracting the low signal of the control flow cell and the dissociation curve of the 4D12G1 mAb. The KD values, taking into account affinity and avidity, were calculated using a Langmuir 1:1 fitting model and BIAevaluation 3.2 software (GE Healthcare Bio-Sciences).
# An overlapping series of 16-mer peptides spanning the entire 132 amino acid sequence of human AMHR2-ED (FIG. 3A) with moving single amino acid shifts were plated for direct ELISA testing using the 4D12G1 mAb as primary antibody. […]
binder,measurement,setting,value
"4D12G1 mAb (antibody, IgG1, V domains shown, also called 4D12G1 IgG1 mAb) VH: DVKLVESGGGLVKLGGSLKLSCAASGFTFSRYFMSWVRQTPEKRLELVAAINSDGGRTYYPDTVKGRFTISRDNAKNTLYLQMSSLKSEDTALYYCTRHIYSYYEDYFDYWGQGTTLTVSS VL: DVVMTQTPLSLPVSLGDQASISCRSSQSLVHSNGNTYLHWYLQKPGQSPKLLIYKVSKRFSGVPDRFSGSGSGTDFTLKISRVEAEDLGVYFCSQSTHVYTFGGGTKLEIK",binding result,[1],binds
same,binding result,p20-35,binds
same,binding result,p21-36,binds
same,binding result,p22-37,binds
same,binding result,p20-26,binds
same,Kd,[2],0.119 nM
